Assays:
[1] = system: HeLa Kyoto; experiment: solubility in G1/S (NP-40 vs SDS abundance) (log2 ratio); higher = more soluble; details: cell cycle stage: G1/S
[2] = system: HeLa Kyoto; experiment: melting temperature (median over replicates), in situ; higher = more thermally stable
[3] = system: HeLa Kyoto; experiment: solubility change mitosis vs G1/S (difference of NP-40 vs SDS log2 ratios) (log2 ratio difference); higher = more soluble in mitosis
[4] = system: HeLa Kyoto; experiment: thermal stability score vs G1/S (z-score of summed log2 fold changes over temperatures); higher = more thermally stable than in G1/S
[5] = cell cycle stage: early G1 (4.5 h after nocodazole release)
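For melting temperature (median over replicates), in situ in this document: HeLa Kyoto cells synchronized by double thymidine or nocodazole block, proteins quantified by TMT10plex mass spectrometry, three independent biological replicates.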
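For solubility change mitosis vs G1/S (difference of NP-40 vs SDS log2 ratios) in this document: synchronized HeLa Kyoto cells (double thymidine block for G1/S, nocodazole release for mitosis), protein amounts in NP-40 versus SDS lysates quantified by mass spectrometry, three biological replicates.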
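For solubility in G1/S (NP-40 vs SDS abundance) in this document: HeLa Kyoto cells arrested at G1/S by double thymidine block, proteins quantified by TMT10plex mass spectrometry in mild NP-40 versus SDS extracts, three biological replicates.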
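For thermal stability score vs G1/S (z-score of summed log2 fold changes over temperatures) in this document: synchronized HeLa Kyoto cells, proteins quantified by TMT10plex mass spectrometry, three biological replicates, mitosis taken 0.5 h after nocodazole release, G1/S directly after double thymidine block.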

Sequence	solubility in G1/S (log2) [1]	melting temperature ([2]; cell cycle stage: G1/S) [°C]	melting temperature ([2]; cell cycle stage: mitosis) [°C]	solubility change mitosis (log2) [3]	thermal stability score [4, 5]	thermal stability score ([4]; cell cycle stage: mitosis)
MDEMATTQISKDELDELKEAFAKVDLNSNGFICDYELHELFKEANMPLPGYKVREIIQKLMLDGDRNKDGKISFDEFVYIFQEVKSSDIAKTFRKAINRKEGICALGGTSELSSEGTQHSYSEEEKYAFVNWINKALENDPDCRHVIPMNPNTDDLFKAVGDGIVLCKMINLSVPDTIDERAINKKKLTPFIIQENLNLALNSASAIGCHVVNIGAEDLRAGKPHLVLGLLWQIIKIGLFADIELSRNEALAALLRDGETLEELMKLSPEELLLRWANFHLENSGWQKINNFSADIKDSKAYFHLLNQIAPKGQKEGEPRIDINMSGFNETDDLKRAESMLQQADKLGCRQFVTPADVVSGNPKLNLAFVANLFNKYPALTKPENQDIDWTLLEGETREERTFRNWMNSLGVNPHVNHLYADLQDALVILQLYERIKVPVDWSKVNKPPYPKLGANMKKLENCNYAVELGKHPAKFSLVGIGGQDLNDGNQTLTLALVWQLMRRYTLNVLEDLGDGQKANDDIIVNWVNRTLSEAGKSTSIQSFKDKTISSSLAVVDLIDAIQPGCINYDLVKSGNLTEDDKHNNAKYAVSMARRIGARVYALPEDLVEVKPKMVMTVFACLMGRGMKRV [PLS3]	0.439	54.9	54.5	0.00363	1.07	1.27
MDEQALLGLNPNADSDFRQRALAYFEQLKISPDAWQVCAEALAQRTYSDDHVKFFCFQVLEHQVKYKYSELTTVQQQLIRETLISWLQAQMLNPQPEKTFIRNKAAQVFALLFVTEYLTKWPKFFFDILSVVDLNPRGVDLYLRILMAIDSELVDRDVVHTSEEARRNTLIKDTMREQCIPNLVESWYQILQNYQFTNSEVTCQCLEVVGAYVSWIDLSLIANDRFINMLLGHMSIEVLREEACDCLFEVVNKGMDPVDKMKLVESLCQVLQSAGFFSIDQEEDVDFLARFSKLVNGMGQSLIVSWSKLIKNGDIKNAQEALQAIETKVALMLQLLIHEDDDISSNIIGFCYDYLHILKQLTVLSDQQKANVEAIMLAVMKKLTYDEEYNFENEGEDEAMFVEYRKQLKLLLDRLAQVSPELLLASVRRVFSSTLQNWQTTRFMEVEVAIRLLYMLAEALPVSHGAHFSGDVSKASALQDMMRTLVTSGVSSYQHTSVTLEFFETVVRYEKFFTVEPQHIPCVLMAFLDHRGLRHSSAKVRSRTAYLFSRFVKSLNKQMNPFIEDILNRIQDLLELSPPENGHQSLLSSDDQLFIYETAGVLIVNSEYPAERKQALMRNLLTPLMEKFKILLEKLMLAQDEERQASLADCLNHAVGFASRTSKAFSNKQTVKQCGCSEVYLDCLQTFLPALSCPLQKDILRSGVRTFLHRMIICLEEEVLPFIPSASEHMLKDCEAKDLQEFIPLINQITAKFKIQVSPFLQQMFMPLLHAIFEVLLRPAEENDQSAALEKQMLRRSYFAFLQTVTGSGMSEVIANQGAENVERVLVTVIQGAVEYPDPIAQKTCFIILSKLVELWGGKDGPVGFADFVYKHIVPACFLAPLKQTFDLADAQTVLALSECAVTLKTIHLKRGPECVQYLQQEYLPSLQVAPEIIQEFCQALQQPDAKVFKNYLKVFFQRAKP [XPOT]	-0.059	49.5	50.1	-0.226	1.65	3.04
MDETSPLVSPERAQPPDYTFPSGSGAHFPQVPGGAVRVAAAAGSGPSPPGSPGHDRERQPLLDRARGAAAQGQTQTVAAQAQALAAQAAAAAHAAQAHRERNEFPEDPEFEAVVRQAELAIERCIFPERIYQGSSGSYFVKDPQGRIIAVFKPKNEEPYGHLNPKWTKWLQKLCCPCCFGRDCLVLNQGYLSEAGASLVDQKLELNIVPRTKVVYLASETFNYSAIDRVKSRGKRLALEKVPKVGQRFNRIGLPPKVGSFQLFVEGYKDADYWLRRFEAEPLPENTNRQLLLQFERLVVLDYIIRNTDRGNDNWLIKYDCPMDSSSSRDTDWVVVKEPVIKVAAIDNGLAFPLKHPDSWRAYPFYWAWLPQAKVPFSQEIKDLILPKISDPNFVKDLEEDLYELFKKDPGFDRGQFHKQIAVMRGQILNLTQALKDNKSPLHLVQMPPVIVETARSHQRSSSESYTQSFQSRKPFFSWW [PI4K2A]	0.202	53.9	53.6	-0.137	1.81	-1.09
MDFPCLWLGLLLPLVAALDFNYHRQEGMEAFLKTVAQNYSSVTHLHSIGKSVKGRNLWVLVVGRFPKEHRIGIPEFKYVANMHGDETVGRELLLHLIDYLVTSDGKDPEITNLINSTRIHIMPSMNPDGFEAVKKPDCYYSIGRENYNQYDLNRNFPDAFEYNNVSRQPETVAVMKWLKTETFVLSANLHGGALVASYPFDNGVQATGALYSRSLTPDDDVFQYLAHTYASRNPNMKKGDECKNKMNFPNGVTNGYSWYPLQGGMQDYNYIWAQCFEITLELSCCKYPREEKLPSFWNNNKASLIEYIKQVHLGVKGQVFDQNGNPLPNVIVEVQDRKHICPYRTNKYGEYYLLLLPGSYIINVTVPGHDPHITKVIIPEKSQNFSALKKDILLPFQGQLDSIPVSNPSCPMIPLYRNLPDHSAATKPSLFLFLVSLLHIFFK	0.0898	57.6	56.3	-0.0348	2.04	3.27
MDFSRNLYDIGEQLDSEDLASLKFLSLDYIPQRKQEPIKDALMLFQRLQEKRMLEESNLSFLKELLFRINRLDLLITYLNTRKEEMERELQTPGRAQISAYRVMLYQISEEVSRSELRSFKFLLQEEISKCKLDDDMNLLDIFIEMEKRVILGEGKLDILKRVCAQINKSLLKIINDYEEFSKERSSSLEGSPDEFSNGEELCGVMTISDSPREQDSESQTLDKVYQMKSKPRGYCLIINNHNFAKAREKVPKLHSIRDRNGTHLDAGALTTTFEELHFEIKPHDDCTVEQIYEILKIYQLMDHSNMDCFICCILSHGDKGIIYGTDGQEAPIYELTSQFTGLKCPSLAGKPKVFFIQACQGDNYQKGIPVETDSEEQPYLEMDLSSPQTRYIPDEADFLLGMATVNNCVSYRNPAEGTWYIQSLCQSLRERCPRGDDILTILTEVNYEVSNKDDKKNMGKQMPQPTFTLRKKLVFPSD [CASP8]	0.075	48.5	48.7	-0.167	0.959	2
MDFTAQPKPATALCGVVSADGKIAYPPGVKEITDKITTDEMIKRLKMVVKTFMDMDQDSEDEKQQYLPLALHLASEFFLRNPNKDVRLLVACCLADIFRIYAPEAPYTSHDKLKDIFLFITRQLKGLEDTKSPQFNRYFYLLENLAWVKSYNICFELEDCNEIFIQLFRTLFSVINNSHNKKVQMHMLDLMSSIIMEGDGVTQELLDSILINLIPAHKNLNKQSFDLAKVLLKRTVQTIEACIANFFNQVLVLGRSSVSDLSEHVFDLIQELFAIDPHLLLSVMPQLEFKLKSNDGEERLAVVRLLAKLFGSKDSDLATQNRPLWQCFLGRFNDIHVPVRLESVKFASHCLMNHPDLAKDLTEYLKVRSHDPEEAIRHDVIVTIITAAKRDLALVNDQLLGFVRERTLDKRWRVRKEAMMGLAQLYKKYCLHGEAGKEAAEKVSWIKDKLLHIYYQNSIDDKLLVEKIFAQYLVPHNLETEERMKCLYYLYASLDPNAVKALNEMWKCQNMLRSHVRELLDLHKQPTSEANCSAMFGKLMTIAKNLPDPGKAQDFVKKFNQVLGDDEKLRSQLELLISPTCSCKQADICVREIARKLANPKQPTNPFLEMVKFLLERIAPVHIDSEAISALVKLMNKSIEGTADDEEEGVSPDTAIRSGLELLKVLSFTHPTSFHSAETYESLLQCLRMEDDKVAEAAIQIFRNTGHKIETDLPQIRSTLIPILHQKAKRGTPHQAKQAVHCIHAIFTNKEVQLAQIFEPLSRSLNADVPEQLITPLVSLGHISMLAPDQFASPMKSVVANFIVKDLLMNDRSTGEKNGKLWSPDEEVSPEVLAKVQAIKLLVRWLLGMKNNQSKSANSTLRLLSAMLVSEGDLTEQKRISKSDMSRLRLAAGSAIMKLAQEPCYHEIITPEQFQLCALVINDECYQVRQIFAQKLHKALVKLLLPLEYMAIFALCAKDPVKERRAHARQCLLKNISIRREYIKQNPMATEKLLSLLPEYVVPYMIHLLAHDPDFTRSQDVDQLRDIKECLWFMLEVLMTKNENNSHAFMKKMAENIKLTRDAQSPDESKTNEKLYTVCDVALCVINSKSALCNADSPKDPVLPMKFFTQPEKDFCNDKSYISEETRVLLLTGKPKPAGVLGAVNKPLSATGRKPYVRSTGTETGSNINVNSELNPSTGNRSREQSSEAAETGVSENEENPVRIISVTPVKNIDPVKNKEINSDQATQGNISSDRGKKRTVTAAGAENIQQKTDEKVDESGPPAPSKPRRGRRPKSESQGNATKNDDLNKPINKGRKRAAVGQESPGGLEAGNAKAPKLQDLAKKAAPAERQIDLQR [PDS5A]	-0.0007	47.2	48.7	-0.126	5.43	11.2
MDGEEKTYGGCEGPDAMYVKLISSDGHEFIVKREHALTSGTIKAMLSGPGQFAENETNEVNFREIPSHVLSKVCMYFTYKVRYTNSSTEIPEFPIAPEIALELLMAANFLDC [TCEB1]	0.256	52.2	52.3	-0.0906	-1.38	-1.62
MDGLLNPRESSKFIAENSRDVFIDSGGVRRVAELLLAKAAGPELRVEGWKALHELNPRAADEAAVNWVFVTDTLNFSFWSEQDEHKCVVRYRGKTYSGYWSLCAAVNRALDEGIPITSASYYATVTLDQVRNILRSDTDVSMPLVEERHRILNETGKILLEKFGGSFLNCVRESENSAQKLMHLVVESFPSYRDVTLFEGKRVSFYKRAQILVADTWSVLEGKGDGCFKDISSITMFADYRLPQVLAHLGALKYSDDLLKKLLKGEMLSYGDRQEVEIRGCSLWCVELIRDCLLELIEQKGEKPNGEINSILLDYYLWDYAHDHREDMKGIPFHRIRCIYY [C9ORF64]	-0.318	50.2	49.7	-0.283	-1.65	0.153
MDGTRTSLDIEEYSDTEVQKNQVLTLEEWQDKWVNGKTAFHQEQGHQLLKKHLDTFLKGKSGLRVFFPLCGKAVEMKWFADRGHSVVGVEISELGIQEFFTEQNLSYSEEPITEIPGTKVFKSSSGNISLYCCSIFDLPRTNIGKFDMIWDRGALVAINPGDRKCYADTMFSLLGKKFQYLLCVLSYDPTKHPGPPFYVPHAEIERLFGKICNIRCLEKVDAFEERHKSWGIDCLFEKLYLLTEK [TPMT]	0.0374	54	54	-0.18	-0.85	-0.417
MDKLKKVLSGQDTEDRSGLSEVVEASSLSWSTRIKGFIACFAIGILCSLLGTVLLWVPRKGLHLFAVFYTFGNIASIGSTIFLMGPVKQLKRMFEPTRLIATIMVLLCFALTLCSAFWWHNKGLALIFCILQSLALTWYSLSFIPFARDAVKKCFAVCLA [SFT2D2]	0.0285	57.4	61.1	0.0654	-0.835	-0.774
MDKNELVQKAKLAEQAERYDDMAACMKSVTEQGAELSNEERNLLSVAYKNVVGARRSSWRVVSSIEQKTEGAEKKQQMAREYREKIETELRDICNDVLSLLEKFLIPNASQAESKVFYLKMKGDYYRYLAEVAAGDDKKGIVDQSQQAYQEAFEISKKEMQPTHPIRLGLALNFSVFYYEILNSPEKACSLAKTAFDEAIAELDTLSEESYKDSTLIMQLLRDNLTLWTSDTQGDEAEAGEGGEN [YWHAZ]	0.359	54.9	54.8	0.346	-3.76	-3.47

From the supplement of paper PMC5998384
